# Source: paper PMC5789026, “mRNA Processing Factor CstF-50 and Ubiquitin Escort Factor p97 Are BRCA1/BARD1 Cofactors Involved in Chromatin Remodeling during the DNA Damage Response” (Molecular and Cellular Biology, 2017)
# B1: GST-CstF-50 (natural protein, UniProt Q05048 1-431, looked up)
# chain: MYRTKVGLKDRQQLYKLIISQLLYDGYISIANGLINEIKPQSVCAPSEQLLHLIKLGMENDDTAVQYAIGRSDTVAPGTGIDLEFDADVQTMSPEASEYETCYVTSHKGPCRVATYSRDGQLIATGSADASIKILDTERMLAKSAMPIEVMMNETAQQNMENHPVIRTLYDHVDEVTCLAFHPTEQILASGSRDYTLKLFDYSKPSAKRAFKYIQEAEMLRSISFHPSGDFILVGTQHPTLRLYDINTFQCFVSCNPQDQHTDAICSVNYNSSANMYVTGSKDGCIKLWDGVSNRCITTFEKAHDGAEVCSAIFSKNSKYILSSGKDSVAKLWEISTGRTLVRYTGAGLSGRQVHRTQAVFNHTEDYVLLPDERTISLCCWDSRTAERRNLLSLGHNNIVRCIVHSPTNPGFMTCSDDFRARFWYRRSTTD
# notes: CstF-50 (cleavage stimulation factor 50), recombinant; also called glutathione S-transferase (GST)-CstF-50; source: E. coli BL21, purified (glutathione-agarose)
# Assays:
# His-Ub = biological target: T1, His-Ub (UniProt P0CG48 1-76); test: pull-down; interaction assay with His-Ub and GST-CstF-50 as described previously (ref. 5); pellets and supernatants analysed by immunoblotting under denaturing PAGE; conditions: both partners purified
# T1 construct: ubiquitin (Ub), the cut product of its precursor; also called ubiquitin; source: E. coli BL21, purified (Ni-agarose)
# [1] = biological target: T2, ΔBRCA1/BARD1-wt heterodimeric complex (truncated BRCA1 residues 1 to 304 and full-length BARD1) (UniProt P38398 1-304; Q99728 1-777); test: pull-down; ΔBRCA1/BARD1 (wt or Q564H) incubated with GST-CstF-50 and/or His-p97, immunoprecipitated with anti-BARD1 or preimmune sera; washes with buffer A (PBS, 0.01% Nonidet P-40, 0.04% BSA) including 300 mM NaCl; Western blot; conditions: both partners purified
# T2 construct: truncated BRCA1 spanning the RING domain, residues 1 to 304; full-length BARD1, wild type; also called BRCA1/BARD1 heterodimer
# T2 sequence (P38398 1-304, stated change not applied, chain 1 of 2): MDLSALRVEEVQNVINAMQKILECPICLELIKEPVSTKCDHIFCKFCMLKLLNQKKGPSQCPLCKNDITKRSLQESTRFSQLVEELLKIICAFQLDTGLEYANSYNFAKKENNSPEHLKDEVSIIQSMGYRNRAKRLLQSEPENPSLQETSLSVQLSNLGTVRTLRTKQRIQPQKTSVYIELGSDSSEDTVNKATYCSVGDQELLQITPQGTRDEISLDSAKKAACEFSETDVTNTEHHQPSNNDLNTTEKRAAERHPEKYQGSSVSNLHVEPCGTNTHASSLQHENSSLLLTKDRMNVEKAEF
# T2 sequence (Q99728 whole entry, stated change not applied, chain 2 of 2, the tested form may be a part): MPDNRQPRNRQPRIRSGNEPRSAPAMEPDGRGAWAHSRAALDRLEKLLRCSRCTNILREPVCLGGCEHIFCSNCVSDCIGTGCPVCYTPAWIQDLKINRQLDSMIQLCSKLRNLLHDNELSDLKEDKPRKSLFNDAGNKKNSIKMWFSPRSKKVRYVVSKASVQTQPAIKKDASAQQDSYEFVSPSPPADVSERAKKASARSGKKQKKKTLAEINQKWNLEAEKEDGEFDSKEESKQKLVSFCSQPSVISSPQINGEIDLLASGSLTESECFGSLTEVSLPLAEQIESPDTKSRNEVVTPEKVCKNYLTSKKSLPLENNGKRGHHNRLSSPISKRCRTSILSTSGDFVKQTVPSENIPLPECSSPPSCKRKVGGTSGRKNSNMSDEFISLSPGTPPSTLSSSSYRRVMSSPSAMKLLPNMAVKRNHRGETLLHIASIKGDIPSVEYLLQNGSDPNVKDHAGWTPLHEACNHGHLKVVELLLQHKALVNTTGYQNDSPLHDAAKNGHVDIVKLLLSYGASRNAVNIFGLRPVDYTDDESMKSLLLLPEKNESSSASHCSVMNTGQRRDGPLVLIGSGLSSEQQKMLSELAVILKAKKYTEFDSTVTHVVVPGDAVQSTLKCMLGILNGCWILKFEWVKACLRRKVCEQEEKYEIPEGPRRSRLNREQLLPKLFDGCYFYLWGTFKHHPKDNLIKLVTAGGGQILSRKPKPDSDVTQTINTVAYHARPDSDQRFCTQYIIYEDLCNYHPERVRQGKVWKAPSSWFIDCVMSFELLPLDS
binder,measurement,setting,value
B1,binding result,His-Ub,binds
same,binding result,[1],binds
